Laboratory results published in patent EP0877803B1.

Key:
OB protein [1] = assay: BIACORE; OB protein immobilized, conditioned medium of 293 cells expressing the receptor
OB protein [2] = assay: BIACORE; OB protein immobilized, conditioned medium of CHO cells expressing the receptor

BIACORE read-out (OB protein [1])	BIACORE read-out (OB protein [2])	Substance
191	151	recombinant soluble human OB receptor (leader + extracellular domain, Seq. ID No. 10)
172		recombinant soluble human OB receptor with a C-terminal FLAG-tag (Seq. ID No. 12)
